T1: TbCentrin3, purified for ITC (Trypanosoma brucei, UniProt Q38AA2 1-165)
T1 chain: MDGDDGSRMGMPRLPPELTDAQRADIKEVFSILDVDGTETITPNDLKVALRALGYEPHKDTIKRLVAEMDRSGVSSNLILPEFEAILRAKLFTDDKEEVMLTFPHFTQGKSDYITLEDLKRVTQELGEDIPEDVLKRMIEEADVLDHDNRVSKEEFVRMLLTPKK

T2: TbCentrin4, purified for ITC (Trypanosoma brucei, UniProt Q57WF6 1-149)
T2 chain: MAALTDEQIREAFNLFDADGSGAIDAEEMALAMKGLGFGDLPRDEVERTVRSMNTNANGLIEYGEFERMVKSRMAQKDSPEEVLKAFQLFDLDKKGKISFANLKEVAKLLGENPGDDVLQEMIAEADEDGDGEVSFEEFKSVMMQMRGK

B1: Trypanosoma brucei centrin5 (TbCentrin5), purified, His-tag removed (natural protein, UniProt Q382E7 1-186, looked up)
chain: MEGPKLKGAARCAAVEKVESKTQLSIAISEKHKAQLREAFDFFDSDGTGRINAQDVKVAFCALGYEVGKEELTHLLRQVGASTTGVIDFNDFYSVIIAKIMQRENRSEAIRAFKLIDTGEKGYINVDDLRPIAASLQMNLTDDELAEMVLFAHPSATYSKADTEMKDPLTVSEEEFLKLMNRAHVY
notes: TbCentrin5 of Trypanosoma brucei, Tb927.11.13900, full-length gene amplified from genomic DNA; 186 amino acids, about 20 kDa calculated; also called centrin5 of T. brucei; Tb927.11.13900; source: E. coli BL21 (DE3), purified (TEV digestion, gel filtration Sephadex G-75); not shown: His-tag, N-terminal, cleaved
B2: TbCentrin1, purified for ITC (natural protein, Trypanosoma brucei, UniProt Q584G1 1-182, looked up)
chain: MSSSRPATGNRLAVPIRTNLPVPAPRKRRFELTDEQRQEIREAFELFDSDKNGLIDAHEMKVSMRALGFDAKKEEVLRMMQDCAARDQHNNPLMDLAGFTDLMTERFAQRDPRQEMIKAFQLFDENNTGKISLRSLRRVARELGENMTDEELQAMIDEFDTDQDGEINLDEFLAIMLEDDDY
notes: TbCentrin1 of Trypanosoma brucei, Tb927.04.2260; Cloning, tag and host of this protein are not described; also called Tb927.04.2260; source: purified and equilibrated as above (gel filtration Sephadex G-75)
B3: TbCentrin3, purified for ITC (natural protein, Trypanosoma brucei, UniProt Q38AA2 1-165, looked up)
chain: T1 chain
notes: TbCentrin3 of Trypanosoma brucei, Tb927.10.8710; Cloning, tag and host of this protein are not described; also called Tb927.10.8710; source: purified and equilibrated as above (gel filtration Sephadex G-75)
B4: TbCentrin4, purified for ITC (natural protein, Trypanosoma brucei, UniProt Q57WF6 1-149, looked up)
chain: T2 chain
notes: TbCentrin4 of Trypanosoma brucei, Tb927.07.3410; Cloning, tag and host of this protein are not described; also called TbCentirn4; Tb927.07.3410; source: purified and equilibrated as above (gel filtration Sephadex G-75)

How the values were obtained:
[1] = target: T1, TbCentrin3, purified for ITC; assay: ITC
[2] = target: T2, TbCentrin4, purified for ITC; assay: ITC
[3] = target: the molecule itself; assay: SEC; gel filtration on Superdex G-75 column, elution at about 66 mL corresponding to about 36 kDa; SDS/PAGE showed no disulfide bond
[4] = target: B1; assay: ITC; iTC200, 16 °C, 20 mM Tris/HCl pH 7.0, 100 mM NaCl; 50 uM TbCentrin1/2/3/4 in the cell, 0.5 mM TbCentrin5 in the syringe; without EGTA treatment; settings: both partners purified

| Binder | Kd [1] | Kd [2] | stoichiometry N [3] | Kd [4] |
| --- | --- | --- | --- | --- |
| B1 | 56 µM | 16 µM | 2 | – |
| B2 | – | – | – | 105 µM |
| B3 | – | – | – | 52 µM |
| B4 | – | – | – | 12 µM |
